*1 amine or outer side, *2 acyl side, *3 side chain or, on linkers, in order; H or OH if unused. Where a SMILES comes first, the peptide text is derived from it. Bridges are numbered along the chain shown (N, C = ends). Roman numbers before positions name the chains, in order. [ ]: non-standard residue; d: D form. Actinocin(9to1) = Cc1c2oc3c(C)ccc(C(=O)[*:1])c3nc-2c(C(=O)[*:2])c(N)c1=O; NMeV = CN[C@H](C(=O)O)C(C)C; Sar = CNCC(=O)O

What all share (format): cell-based
The subject of series [1] is latently HIV-1 infected J89GFP T cells. Briefly: HIV-1 reactivation / priming in latently HIV-1 infected J89GFP T cells (GFP, flow cytometry, HTS). The procedure: Flow cytometry. Infection levels in the cell cultures were monitored by flow cytometric (FCM) analysis of GFP expression. […] Cell sorting experiments were performed using a FACSAria™ Flow Cytometer (Becton&Dickinson). Data analysis was performed using either CellQuest (Becton&Dickinson) or GUAVA Express (GUAVA Technologies, Inc.).

For series [2], the system named is latently HIV-1 infected EF7 cells. The series is described as follows: Priming of latent HIV-1 infection in EF7 T cells (converse sense integration). The note with it: 4 ng/ml, 18 hours pretreatment. The procedure:
FIGS. 13A-B show the effect of dactinomycin on latent infection as a function of the orientation of integration relative to the direction of host-gene transcription. HIV-1 can integrate in the same transcriptional orientation as the host-gene or in the converse sense. Two latently HIV-1 infected T cell lines, which were determined to have HIV-1 integrated in the same sense orientation (CA5 cells) (FIG. 13A) and in the converse sense orientation (EF7 cells) (FIG. 13B) were used. For either cell line, the host-gene name, the position of integration and the chromosome number is given. For either T cell line, reactivation levels achieved by TNF-α treatment alone or by TNF-α stimulation following pretreatment with 4 ng/ml dactinomycin for 18 hours are shown. Reactivation levels were determined using flow cytometric analysis for GFP expression. The gray dotted line represents maximum achievable reactivation levels using PMA.
The sense of orientation of the integrated latent virus, relative to the transcriptional direction of the host-gene, was investigated to determine whether the orientation would influence the ability of dactinomycin to prime latent infection for reactivation. […]

The test system of series [3] is NF-κB p50 and p65. Briefly: NF-κB p50 and p65 activity in PBMCs (TransAM NF-κB family ELISA). The note with it: compared to PHA-L. The procedure: FIGS. 8A-8C show HRF induced NF-κB and cytokine expression in peripheral blood mononuclear cells (PBMCs). […] PBMCs were activated with optimal concentrations of either PHA-L or with HRF. Cells were harvested at the indicated time points. Nuclear extracts were generated and NF-κB p50 activity and NF-κB p65 activity were determined using the TransAM™ NF-κB family ELISA kit (Active Motif). […] PBMCs from four different healthy donors were stimulated with an anti-CD3/CD28 antibody combination and infected with a GFP reporter virus on day 4 post-stimulation. HIV-1 replication was monitored in the absence (C) or presence of HRF for 5 days and the achieved HIV-1 infection levels were determined by flow cytometric analysis for the percentage of EGFP-positive cells. All infections were normalized to the infection level in the untreated culture and the histogram represents the mean infection levels obtained in 4 donor cultures±standard deviation. […] Culture supernatants were collected after 24 hours and the concentrations of a panel of cytokines was determined by BioPlex analysis. […]
NF-κB activity in nuclear extracts was quantified using the TransAM™ NF-κB family ELISA kit from Active Motif, Inc. (Carlsbad, Calif.) according to the manufacturer's instructions.

For series [4], the system named is latently HIV-1 infected monocytic THP89GFP cells. Briefly: HIV-1 reactivation in latently infected monocytic THP89GFP cells.
For series [5], the system named is HIV-1 LTR. The series is described as follows: Tat-independent activation of integrated LTR-GFP construct in NOMI reporter T cells. The note with it: 24 hours. The protocol:
FIGS. 6A-6C show HRF triggers suboptimal functional induction of NF-κB dependent gene expression. […] The HIV-1 reactivating kinetics were determined by stimulating CA5 T cells with optimal concentrations of HRF, phorbol 12-myristate 13-acetate (PMA) and tumor necrosis factor-α (TNF-α) and analyzing HIV-1 reactivation as a function of EGFP-expression over a period of 48 hours. Data for all agents are depicted as the percentage of EGFP-positive cells in the total cell population. […] To test the ability of HRF to mediate Tat-independent activation of the HIV-1 LTR, NOMI cells (HIV-1 reporter cell line with an integrated LTR-EGFP construct) were stimulated with increasing concentrations of PMA (0.01-10 ng/ml), TNF-α (0.003-30 μg/ml) and HRF supernatant (0.3-100 μl). The level of LTR-induction was then measured as EGFP-expression detectable after 24 hours as determined by flow cytometric analysis. Arrows indicate the concentrations at which the respective stimulus would have triggered full HIV-1 reactivation in the latently HIV-1 infected CA5 T cell line. […] 293T cells were transfected with several NF-κB dependent promoter constructs and then stimulated with either TNF-α (10 μg/ml) or HRF (25 μl). Promoter induction was measured as total EGFP expression. (NF-κB:pNF-κB-d2EGFP; LTR:HIV-1 LTR-GFP; IL-8:pIL-8 GFP; TNF:human TNF-GFP; MSCV:murine stem cell virus LTR driven GFP; no NF-κB responsive elements).
As the NF-κB pathway has been recognized as vital to HIV-1 activation, the ability of HRF to trigger NF-κB activation was investigated. It was initially determined that HRF had the ability to stimulate Tat independent activation of an integrated LTR-GFP construct in NOMI reporter T cells.

The subject of series [6] is latently HIV-1 infected reporter T cell lines. The protocol:
FIGS. 1A and 1B show culture supernatants from Massilia timonae reactivate latent HIV-1 infection. […] Untreated control cells and HRF-treated cells were subjected to flow cytometric analysis to determine enhanced green fluorescent protein (EGFP) expression as a direct and quantitative marker of HIV-1 expression 24 hours post stimulation. FSC/SSC dot plots are represented to evaluate cell viability as a function of changes in the FSC (cell size)-SSC (granularity) phenotype of the cells. FIG. 1B is a histogram showing the reproducibility of the observed HIV-1 reactivation. Three independent preparations of HRF (batches HRF1-3) on four different latently infected T cell lines (5F3, 8E12, CA5 and 12D4) were tested. The percentage of EGFP positive cells following stimulation is depicted in the histogram. Cell culture supernatants of Pseudomonas aeruginosa cultures, grown under similar conditions, were used as specificity controls.
Infection levels in the cell cultures were monitored by flow cytometric analysis of EGFP expression. Flow cytometric analysis was performed on a GUAVA EasyCyte (Millipore; Billerica, Mass.), or a LSRII (Becton & Dickinson; Franklin Lakes, N.J.).

Regarding `Cc1c2oc3c(C)ccc(C(=O)N[C@@H]4C(=O)N[C@H](C(C)C)C(=O)N5CCC[C@H]5C(=O)N(C)CC(=O)N(C)[C@@H](C(C)C)C(=O)O[C@@H]4C)c3nc-2c(C(=O)N[C@@H]2C(=O)N[C@H](C(C)C)C(=O)N3CCC[C@H]3C(=O)N(C)CC(=O)N(C)[C@@H](C(C)C)C(=O)O[C@@H]2C)c(N)c1=O` [dactinomycin] (I: T[dV]P[Sar][NMeV] / II: T[dV]P[Sar][NMeV]; ester I:1-I:C, II:1-II:C; linker I:N-II:N via Actinocin(9to1)), the “priming of latent HIV-1 infection for reactivation” value in series [1] (in combination with sub-optimal TNF-α) is given as “potently primed latent HIV-1 infection for reactivation”. The “HIV-1 reactivating capacity by itself” value in series [1] (relative to latently infected control cells) is “did not exhibit HIV-1 reactivating capacity by itself”. In addition, the “priming effect for reactivation by TNF-α” value in series [2] is recorded as “exerted its priming effect in each integration scenario”.

B1: HRF: flagellin polypeptide from Massilia timonae (SEQ ID NO:10), used as bacterial culture supernatant (protein)
chain: MASVINTNVPSLNSQRNLSTSQAQLNTSIQRLSSGMRINSAKDDAAGLAISDRMNSQIKGMTQATRNANDGVSMAQTAEGALSSSGDILQRIRELAVQSSNSSNSASDRKALQTEVTQLSSELNRIANTTEFNGQKLMDGTLGTANFQVGANAGQLISMTGANFNTSVYGNNQIAGDAAKAAATTSAAATGAFTISGYLGTSAAINTTDADTAKTIAASINNVTGDTGVTATARTDSFLKSAGGAHTMSLASDNSGTGEAVDISFTVGDGGDTADDYAAAISAFNAQTAKTGVTAEYDAVEKGLKLTNSAGENISLTNKAGSADIDMDTYAADGALMASALTLEAGDVGVANGRVTMDSEKSFSVAEGTDTGFELADSSALKSVAKIDISDFEGAQEAIKVADAALSAVNSQRAEYGALQSRFESAISNLSSSTENLSASRSRIVDTDFAAETAKMTRGQILQQAGTSMLAQANSLPNGVLSLLRG
For the molecule B1, the “NF-κB p50 and p65 activity peak” value in series [3] was “very high, but short-lived”. Further, the HIV-1 reactivation result in series [4] is “reactivated latent HIV-1 infection”; in series [6] (four latently infected reporter T cell lines, culture supernatant) it was “efficiently reactivate latent HIV-1 infection”. For the same molecule, in series [5], the “Tat-independent activation of integrated LTR-GFP construct (GFP expression)” value is on record as “modest increase in GFP expression”. In series [6] (culture supernatant on latently infected reporter T cell lines), the “cell viability (flow cytometric FSC/SSC analysis)” value was “No effect on cell viability”.

(Values after US20140295012A1, “LATENT HUMAN IMMUNODEFICIENCY VIRUS REACTIVATION” (priority 2011, published 2014).)
